From the supplement of paper PMC9112550, “Optimization of the antimicrobial peptide Bac7 by deep mutational scanning” (BMC Biology, 2022) come the findings set out here.
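Note: peptides expressed intracellularly from a pBAD plasmid library in pooled LB shake-flask culture, induced with 0.3% L-arabinose, DNA abundance read by NGS, three biological replicates, DESeq2 with apeglm shrinkage.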

In this series the test system is Escherichia coli TOP10. Description: shrunken log2 fold change of peptide-encoding DNA abundance (4.5 h post-induction vs induction); higher = less antimicrobial activity (less host growth inhibition). The settings on record: time post-induction: 4.5 h; library: site-saturation at positions 5, 18, 19, 20.
With RRIRKRPPRLPRPRPRPWHRPRP, the “shrunken log2 fold change” value is -0.0754.

With RRIRERPPRLPRPRPRPFWAPRP, the “shrunken log2 fold change” value worked out at 0.084.

Turning to RRIRGRPPRLPRPRPRPQRPPRP, the “shrunken log2 fold change” value turned out to be 0.406.

For RRIRRRPPRLPRPRPRPFRFPRP, the “shrunken log2 fold change” value was 0.506.

Regarding RRIRERPPRLPRPRPRPVEDPRP, the “shrunken log2 fold change” value was 0.0178.

RRIRWRPPRLPRPRPRPCDWPRP: the “shrunken log2 fold change” value is 0.0315.

Regarding RRIRIRPPRLPRPRPRPYDDPRP, the “shrunken log2 fold change” value was -0.0134.

Take RRIRFRPPRLPRPRPRPLMEPRP: the “shrunken log2 fold change” value is -0.00741.

Turning to RRIRKRPPRLPRPRPRPEVAPRP, the “shrunken log2 fold change” value amounted to 1.9.

For RRIRLRPPRLPRPRPRPHCGPRP, the “shrunken log2 fold change” value was -0.22.

With RRIRKRPPRLPRPRPRPCNRPRP, the “shrunken log2 fold change” value amounted to 0.0247.

For the sequence RRIRVRPPRLPRPRPRPEMAPRP, the “shrunken log2 fold change” value was 0.311.

Regarding RRIRSRPPRLPRPRPRPSFFPRP, the “shrunken log2 fold change” value is -0.211.

RRIRARPPRLPRPRPRPNFWPRP: the “shrunken log2 fold change” value worked out at 0.352.

Take RRIRWRPPRLPRPRPRPFNLPRP: the “shrunken log2 fold change” value is 0.0233.

With RRIRMRPPRLPRPRPRPMFSPRP, the “shrunken log2 fold change” value was -0.125.

For the sequence RRIRHRPPRLPRPRPRPQFMPRP, the “shrunken log2 fold change” value was -0.864.

In the case of RRIRKRPPRLPRPRPRPPLAPRP, the “shrunken log2 fold change” value was 1.06.

Take RRIRNRPPRLPRPRPRPKCTPRP: the “shrunken log2 fold change” value came out at 0.119.

Take RRIRERPPRLPRPRPRPWPVPRP: the “shrunken log2 fold change” value was -0.643.

For the sequence RRIRYRPPRLPRPRPRPIVYPRP, the “shrunken log2 fold change” value was -1.23.

For RRIRLRPPRLPRPRPRPEARPRP, the “shrunken log2 fold change” value was found to be 0.142.

With RRIRWRPPRLPRPRPRPCYRPRP, the “shrunken log2 fold change” value is 0.131.

As to RRIRVRPPRLPRPRPRPQFVPRP, the “shrunken log2 fold change” value is -0.122.

For the sequence RRIRQRPPRLPRPRPRPDKVPRP, the “shrunken log2 fold change” value is -0.0238.

For the sequence RRIRLRPPRLPRPRPRPMCHPRP, the “shrunken log2 fold change” value was -0.0587.

RRIRRRPPRLPRPRPRPMFRPRP: the “shrunken log2 fold change” value was -0.0342.

With RRIRARPPRLPRPRPRPNTMPRP, the “shrunken log2 fold change” value was -0.223.

RRIRNRPPRLPRPRPRPPRIPRP: the “shrunken log2 fold change” value worked out at 0.325.

RRIRKRPPRLPRPRPRPYDIPRP: the “shrunken log2 fold change” value was -0.119.

Consider RRIRYRPPRLPRPRPRPHWWPRP, for which the “shrunken log2 fold change” value was -0.0763.

With RRIRERPPRLPRPRPRPYRFPRP, the “shrunken log2 fold change” value was -0.708.

Consider RRIRERPPRLPRPRPRPNHAPRP, for which the “shrunken log2 fold change” value is -0.239.

RRIRVRPPRLPRPRPRPMIPPRP: the “shrunken log2 fold change” value is -0.319.

As to RRIRKRPPRLPRPRPRPYYNPRP, the “shrunken log2 fold change” value was -0.197.

For the sequence RRIRMRPPRLPRPRPRPFNCPRP, the “shrunken log2 fold change” value was -0.643.

For the sequence RRIRIRPPRLPRPRPRPWLFPRP, the “shrunken log2 fold change” value worked out at 0.0545.

As for RRIRIRPPRLPRPRPRPKNIPRP, the “shrunken log2 fold change” value is -0.733.

With RRIRQRPPRLPRPRPRPKGPPRP, the “shrunken log2 fold change” value was -0.201.

As for RRIRHRPPRLPRPRPRPVGSPRP, the “shrunken log2 fold change” value stood at 0.145.

Turning to RRIRQRPPRLPRPRPRPNNKPRP, the “shrunken log2 fold change” value was -0.721.

Consider RRIRHRPPRLPRPRPRPCMKPRP, for which the “shrunken log2 fold change” value turned out to be 0.0319.

As for RRIRHRPPRLPRPRPRPMRQPRP, the “shrunken log2 fold change” value was determined as 0.143.

Turning to RRIRTRPPRLPRPRPRPAPMPRP, the “shrunken log2 fold change” value was 0.202.

RRIRHRPPRLPRPRPRPRYMPRP: the “shrunken log2 fold change” value was -0.559.

RRIRDRPPRLPRPRPRPVWIPRP: the “shrunken log2 fold change” value was -0.125.

For RRIRKRPPRLPRPRPRPFDHPRP, the “shrunken log2 fold change” value amounted to 0.119.

As to RRIRERPPRLPRPRPRPEHDPRP, the “shrunken log2 fold change” value is -0.0107.

For the sequence RRIRNRPPRLPRPRPRPSPHPRP, the “shrunken log2 fold change” value is -0.171.

With RRIRYRPPRLPRPRPRPHQSPRP, the “shrunken log2 fold change” value came to 0.0552.

As to RRIRMRPPRLPRPRPRPCRAPRP, the “shrunken log2 fold change” value came to 0.496.

For the sequence RRIRPRPPRLPRPRPRPEMDPRP, the “shrunken log2 fold change” value was 0.116.

In the case of RRIRIRPPRLPRPRPRPRPYPRP, the “shrunken log2 fold change” value is -0.332.

On to RRIRMRPPRLPRPRPRPRGIPRP, for which the “shrunken log2 fold change” value stood at 0.0677.

In the case of RRIRHRPPRLPRPRPRPNRSPRP, the “shrunken log2 fold change” value is -0.413.

As to RRIRNRPPRLPRPRPRPCMAPRP, the “shrunken log2 fold change” value was -0.346.

On to RRIRFRPPRLPRPRPRPVWDPRP, for which the “shrunken log2 fold change” value stood at 0.0852.

For the sequence RRIRDRPPRLPRPRPRPRNHPRP, the “shrunken log2 fold change” value was -0.641.

Take RRIRKRPPRLPRPRPRPLYTPRP: the “shrunken log2 fold change” value is -0.288.

With RRIRDRPPRLPRPRPRPQSVPRP, the “shrunken log2 fold change” value was -0.0496.

With RRIRYRPPRLPRPRPRPGMIPRP, the “shrunken log2 fold change” value is -0.252.

RRIRGRPPRLPRPRPRPFFNPRP: the “shrunken log2 fold change” value turned out to be 0.186.

For RRIRPRPPRLPRPRPRPWDTPRP, the “shrunken log2 fold change” value is -0.743.

On to RRIRYRPPRLPRPRPRPKSHPRP, for which the “shrunken log2 fold change” value amounted to 0.49.

Turning to RRIRSRPPRLPRPRPRPWPVPRP, the “shrunken log2 fold change” value came out at 0.12.

As to RRIRLRPPRLPRPRPRPESWPRP, the “shrunken log2 fold change” value turned out to be 0.162.

Turning to RRIRFRPPRLPRPRPRPPTIPRP, the “shrunken log2 fold change” value is -0.105.

For RRIRFRPPRLPRPRPRPGSSPRP, the “shrunken log2 fold change” value is -0.0565.

For the sequence RRIRFRPPRLPRPRPRPMMRPRP, the “shrunken log2 fold change” value came out at 0.126.

As to RRIRCRPPRLPRPRPRPKMQPRP, the “shrunken log2 fold change” value is 0.103.

Turning to RRIRERPPRLPRPRPRPPISPRP, the “shrunken log2 fold change” value worked out at 0.0892.

As for RRIRIRPPRLPRPRPRPFLVPRP, the “shrunken log2 fold change” value is -0.759.

Take RRIRHRPPRLPRPRPRPQIDPRP: the “shrunken log2 fold change” value was -0.123.

As for RRIRRRPPRLPRPRPRPLYQPRP, the “shrunken log2 fold change” value is -0.315.

Take RRIRIRPPRLPRPRPRPENRPRP: the “shrunken log2 fold change” value was -0.176.

Turning to RRIRGRPPRLPRPRPRPKGEPRP, the “shrunken log2 fold change” value was determined as 0.197.

Turning to RRIRCRPPRLPRPRPRPCVNPRP, the “shrunken log2 fold change” value was -0.106.

For the sequence RRIRRRPPRLPRPRPRPPSLPRP, the “shrunken log2 fold change” value is 0.522.

Take RRIRYRPPRLPRPRPRPGQDPRP: the “shrunken log2 fold change” value is -0.346.

With RRIRDRPPRLPRPRPRPFEMPRP, the “shrunken log2 fold change” value came to 0.182.

Regarding RRIRMRPPRLPRPRPRPLADPRP, the “shrunken log2 fold change” value is 3.11.

In the case of RRIRSRPPRLPRPRPRPSRSPRP, the “shrunken log2 fold change” value stood at 0.179.

As for RRIRLRPPRLPRPRPRPNFCPRP, the “shrunken log2 fold change” value was found to be 0.101.

As to RRIRPRPPRLPRPRPRPANLPRP, the “shrunken log2 fold change” value was -0.12.

As to RRIRMRPPRLPRPRPRPEVRPRP, the “shrunken log2 fold change” value was 0.438.

On to RRIRARPPRLPRPRPRPFIWPRP, for which the “shrunken log2 fold change” value was found to be 0.00679.

On to RRIRVRPPRLPRPRPRPDYLPRP, for which the “shrunken log2 fold change” value is -0.222.

Turning to RRIRVRPPRLPRPRPRPSWAPRP, the “shrunken log2 fold change” value is 0.0598.

In the case of RRIRARPPRLPRPRPRPLYYPRP, the “shrunken log2 fold change” value is -0.316.

As to RRIRFRPPRLPRPRPRPSVRPRP, the “shrunken log2 fold change” value is -0.302.

With RRIRLRPPRLPRPRPRPCFWPRP, the “shrunken log2 fold change” value turned out to be 0.14.
